# B1: CTMA9-105 (antibody, V domains shown)
# VH: EVQLVESGGGLIQPGGSLRLSCAASGITVSSNYMSWVRQAPGKGLEWVSLIYSGGSTYYADSVKGRFTISRDNSKNTLYLQMNSLRAEDTAVYYCARDLEEAGGMDVWGQGTTVTVSS
# VL: DIVMTQSPGTLSLSPGERATLSCRASQSVPSIYLAWYQQRPGQAPRLLIYGASSRATGIPDRFSGSGSGTDFTLTISRLEPEDFAVYYCQQYGSSPGTFGQGTKVEIK
# Target: two kinds of spike viruses (Wuhan type S, European type SD614G)
# Assay: cell-based or functional assay
binder,measurement,value
B1,"IC50, pseudovirus neutralization test using the purified antibody",2 to 6 ng/mL
